Source: US20210139548A1 (published 2021)
*1 amine or outer side, *2 acyl side, *3 side chain or, on linkers, in order; H or OH if unused. Side-chain parts run from the residue outwards. The star is where a group is joined. C18 diacid = O=C(O)CCCCCCCCCCCCCCCCC(=O)*; γGlu = O=C(O)[C@H](CCC(=O)[*:2])N[*:1]; Isovaleryl = CC(C)CC(=O)*; AEEA = NCCOCCOCC(=O)O

T1: human neuropeptide Y2 receptor (human, UniProt P49146 1-381)
T1 construct: whole, on cells; also called hNPY2 receptor; hNPY2-R
T1 sequence (looked up): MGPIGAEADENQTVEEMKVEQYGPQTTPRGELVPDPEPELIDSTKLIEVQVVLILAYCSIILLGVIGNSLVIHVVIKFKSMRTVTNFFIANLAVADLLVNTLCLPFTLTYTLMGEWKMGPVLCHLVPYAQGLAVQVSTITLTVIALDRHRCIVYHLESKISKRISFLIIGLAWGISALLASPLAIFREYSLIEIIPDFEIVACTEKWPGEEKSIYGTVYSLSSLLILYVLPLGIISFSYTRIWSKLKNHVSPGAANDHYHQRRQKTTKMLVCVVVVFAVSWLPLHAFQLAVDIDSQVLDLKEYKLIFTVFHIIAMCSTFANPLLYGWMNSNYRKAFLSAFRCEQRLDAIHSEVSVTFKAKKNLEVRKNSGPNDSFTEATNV


Target: T1, human neuropeptide Y2 receptor
Test: radioligand competition (125I-PYY(1-36)), hNPY2R membranes
Procedure, shortened: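 Commercial human Y2 receptor membranes (0.5 μg protein/well) were incubated with peptide for 2 h at room temperature in 50 mM HEPES, 5 mM MgCl₂, 1 mM CaCl₂, pH 7.4, with 0.2% ovalbumin. Bound radioligand was separated on PEI-soaked GF/C filters and counted by scintillation, and IC₅₀ came from nonlinear sigmoidal regression.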

Binder	Ki [nM]
Isovaleryl-APEK([AEEA-AEEA-γGlu-C18 diacid])PEEEASAEELQRYYVSLRHYYNWLTRQRY-NH2 (SMILES CC(C)CC(=O)N[C@@H](C)C(=O)N1CCC[C@H]1C(=O)N[C@@H](CCC(=O)O)C(=O)N[C@@H](CCCCNC(=O)COCCOCCNC(=O)COCCOCCNC(=O)CC[C@H](NC(=O)CCCCCCCCCCCCCCCCC(=O)O)C(=O)O)C(=O)N1CCC[C@H]1C(=O)N[C@@H](CCC(=O)O)C(=O)N[C@@H](CCC(=O)O)C(=O)N[C@@H](CCC(=O)O)C(=O)N[C@@H](C)C(=O)N[C@@H](CO)C(=O)N[C@@H](C)C(=O)N[C@@H](CCC(=O)O)C(=O)N[C@@H](CCC(=O)O)C(=O)N[C@@H](CC(C)C)C(=O)N[C@@H](CCC(N)=O)C(=O)N[C@@H](CCCNC(=N)N)C(=O)N[C@@H](Cc1ccc(O)cc1)C(=O)N[C@@H](Cc1ccc(O)cc1)C(=O)N[C@H](C(=O)N[C@@H](CO)C(=O)N[C@@H](CC(C)C)C(=O)N[C@@H](CCCNC(=N)N)C(=O)N[C@@H](Cc1c[nH]cn1)C(=O)N[C@@H](Cc1ccc(O)cc1)C(=O)N[C@@H](Cc1ccc(O)cc1)C(=O)N[C@@H](CC(N)=O)C(=O)N[C@@H](Cc1c[nH]c2ccccc12)C(=O)N[C@@H](CC(C)C)C(=O)N[C@H](C(=O)N[C@@H](CCCNC(=N)N)C(=O)N[C@@H](CCC(N)=O)C(=O)N[C@@H](CCCNC(=N)N)C(=O)N[C@@H](Cc1ccc(O)cc1)C(N)=O)[C@@H](C)O)C(C)C) [Compound 25]	4.36
Isovaleryl-APEK([AEEA-AEEA-γGlu-C18 diacid])PEEDTSPEELQRYEVSLRHYYNWLTRQRY-NH2 (SMILES CC(C)CC(=O)N[C@@H](C)C(=O)N1CCC[C@H]1C(=O)N[C@@H](CCC(=O)O)C(=O)N[C@@H](CCCCNC(=O)COCCOCCNC(=O)COCCOCCNC(=O)CC[C@H](NC(=O)CCCCCCCCCCCCCCCCC(=O)O)C(=O)O)C(=O)N1CCC[C@H]1C(=O)N[C@@H](CCC(=O)O)C(=O)N[C@@H](CCC(=O)O)C(=O)N[C@@H](CC(=O)O)C(=O)N[C@H](C(=O)N[C@@H](CO)C(=O)N1CCC[C@H]1C(=O)N[C@@H](CCC(=O)O)C(=O)N[C@@H](CCC(=O)O)C(=O)N[C@@H](CC(C)C)C(=O)N[C@@H](CCC(N)=O)C(=O)N[C@@H](CCCNC(=N)N)C(=O)N[C@@H](Cc1ccc(O)cc1)C(=O)N[C@@H](CCC(=O)O)C(=O)N[C@H](C(=O)N[C@@H](CO)C(=O)N[C@@H](CC(C)C)C(=O)N[C@@H](CCCNC(=N)N)C(=O)N[C@@H](Cc1c[nH]cn1)C(=O)N[C@@H](Cc1ccc(O)cc1)C(=O)N[C@@H](Cc1ccc(O)cc1)C(=O)N[C@@H](CC(N)=O)C(=O)N[C@@H](Cc1c[nH]c2ccccc12)C(=O)N[C@@H](CC(C)C)C(=O)N[C@H](C(=O)N[C@@H](CCCNC(=N)N)C(=O)N[C@@H](CCC(N)=O)C(=O)N[C@@H](CCCNC(=N)N)C(=O)N[C@@H](Cc1ccc(O)cc1)C(N)=O)[C@@H](C)O)C(C)C)[C@@H](C)O) [Compound 32]	4.84
Isovaleryl-APEK([AEEA-AEEA-γGlu-C18 diacid])PEEDTSPEELQRYYVELRHYYNWLTRQRY-NH2 (SMILES CC(C)CC(=O)N[C@@H](C)C(=O)N1CCC[C@H]1C(=O)N[C@@H](CCC(=O)O)C(=O)N[C@@H](CCCCNC(=O)COCCOCCNC(=O)COCCOCCNC(=O)CC[C@H](NC(=O)CCCCCCCCCCCCCCCCC(=O)O)C(=O)O)C(=O)N1CCC[C@H]1C(=O)N[C@@H](CCC(=O)O)C(=O)N[C@@H](CCC(=O)O)C(=O)N[C@@H](CC(=O)O)C(=O)N[C@H](C(=O)N[C@@H](CO)C(=O)N1CCC[C@H]1C(=O)N[C@@H](CCC(=O)O)C(=O)N[C@@H](CCC(=O)O)C(=O)N[C@@H](CC(C)C)C(=O)N[C@@H](CCC(N)=O)C(=O)N[C@@H](CCCNC(=N)N)C(=O)N[C@@H](Cc1ccc(O)cc1)C(=O)N[C@@H](Cc1ccc(O)cc1)C(=O)N[C@H](C(=O)N[C@@H](CCC(=O)O)C(=O)N[C@@H](CC(C)C)C(=O)N[C@@H](CCCNC(=N)N)C(=O)N[C@@H](Cc1c[nH]cn1)C(=O)N[C@@H](Cc1ccc(O)cc1)C(=O)N[C@@H](Cc1ccc(O)cc1)C(=O)N[C@@H](CC(N)=O)C(=O)N[C@@H](Cc1c[nH]c2ccccc12)C(=O)N[C@@H](CC(C)C)C(=O)N[C@H](C(=O)N[C@@H](CCCNC(=N)N)C(=O)N[C@@H](CCC(N)=O)C(=O)N[C@@H](CCCNC(=N)N)C(=O)N[C@@H](Cc1ccc(O)cc1)C(N)=O)[C@@H](C)O)C(C)C)[C@@H](C)O) [Compound 28]	6.03

Further lines, results first:

Ki [nM]	Binder
0.77	Isovaleryl-APEK([AEEA-AEEA-γGlu-C18 diacid])PPEDATPEELQRYYVSLRHYYNWLTRQRY-NH2 (SMILES CC(C)CC(=O)N[C@@H](C)C(=O)N1CCC[C@H]1C(=O)N[C@@H](CCC(=O)O)C(=O)N[C@@H](CCCCNC(=O)COCCOCCNC(=O)COCCOCCNC(=O)CC[C@H](NC(=O)CCCCCCCCCCCCCCCCC(=O)O)C(=O)O)C(=O)N1CCC[C@H]1C(=O)N1CCC[C@H]1C(=O)N[C@@H](CCC(=O)O)C(=O)N[C@@H](CC(=O)O)C(=O)N[C@@H](C)C(=O)N[C@H](C(=O)N1CCC[C@H]1C(=O)N[C@@H](CCC(=O)O)C(=O)N[C@@H](CCC(=O)O)C(=O)N[C@@H](CC(C)C)C(=O)N[C@@H](CCC(N)=O)C(=O)N[C@@H](CCCNC(=N)N)C(=O)N[C@@H](Cc1ccc(O)cc1)C(=O)N[C@@H](Cc1ccc(O)cc1)C(=O)N[C@H](C(=O)N[C@@H](CO)C(=O)N[C@@H](CC(C)C)C(=O)N[C@@H](CCCNC(=N)N)C(=O)N[C@@H](Cc1c[nH]cn1)C(=O)N[C@@H](Cc1ccc(O)cc1)C(=O)N[C@@H](Cc1ccc(O)cc1)C(=O)N[C@@H](CC(N)=O)C(=O)N[C@@H](Cc1c[nH]c2ccccc12)C(=O)N[C@@H](CC(C)C)C(=O)N[C@H](C(=O)N[C@@H](CCCNC(=N)N)C(=O)N[C@@H](CCC(N)=O)C(=O)N[C@@H](CCCNC(=N)N)C(=O)N[C@@H](Cc1ccc(O)cc1)C(N)=O)[C@@H](C)O)C(C)C)[C@@H](C)O) [Compound 26]
0.96	Isovaleryl-APEK([AEEA-AEEA-γGlu-C18 diacid])PPEDAEPEELQRYYVSLRHYYNWLTRQRY-NH2 (SMILES CC(C)CC(=O)N[C@@H](C)C(=O)N1CCC[C@H]1C(=O)N[C@@H](CCC(=O)O)C(=O)N[C@@H](CCCCNC(=O)COCCOCCNC(=O)COCCOCCNC(=O)CC[C@H](NC(=O)CCCCCCCCCCCCCCCCC(=O)O)C(=O)O)C(=O)N1CCC[C@H]1C(=O)N1CCC[C@H]1C(=O)N[C@@H](CCC(=O)O)C(=O)N[C@@H](CC(=O)O)C(=O)N[C@@H](C)C(=O)N[C@@H](CCC(=O)O)C(=O)N1CCC[C@H]1C(=O)N[C@@H](CCC(=O)O)C(=O)N[C@@H](CCC(=O)O)C(=O)N[C@@H](CC(C)C)C(=O)N[C@@H](CCC(N)=O)C(=O)N[C@@H](CCCNC(=N)N)C(=O)N[C@@H](Cc1ccc(O)cc1)C(=O)N[C@@H](Cc1ccc(O)cc1)C(=O)N[C@H](C(=O)N[C@@H](CO)C(=O)N[C@@H](CC(C)C)C(=O)N[C@@H](CCCNC(=N)N)C(=O)N[C@@H](Cc1c[nH]cn1)C(=O)N[C@@H](Cc1ccc(O)cc1)C(=O)N[C@@H](Cc1ccc(O)cc1)C(=O)N[C@@H](CC(N)=O)C(=O)N[C@@H](Cc1c[nH]c2ccccc12)C(=O)N[C@@H](CC(C)C)C(=O)N[C@H](C(=O)N[C@@H](CCCNC(=N)N)C(=O)N[C@@H](CCC(N)=O)C(=O)N[C@@H](CCCNC(=N)N)C(=O)N[C@@H](Cc1ccc(O)cc1)C(N)=O)[C@@H](C)O)C(C)C) [Compound 27]
0.45	Isovaleryl-APEK([AEEA-AEEA-γGlu-C18 diacid])PEEPASPEELQRYYVELRHYYNWLTRQRY-NH2 (SMILES CC(C)CC(=O)N[C@@H](C)C(=O)N1CCC[C@H]1C(=O)N[C@@H](CCC(=O)O)C(=O)N[C@@H](CCCCNC(=O)COCCOCCNC(=O)COCCOCCNC(=O)CC[C@H](NC(=O)CCCCCCCCCCCCCCCCC(=O)O)C(=O)O)C(=O)N1CCC[C@H]1C(=O)N[C@@H](CCC(=O)O)C(=O)N[C@@H](CCC(=O)O)C(=O)N1CCC[C@H]1C(=O)N[C@@H](C)C(=O)N[C@@H](CO)C(=O)N1CCC[C@H]1C(=O)N[C@@H](CCC(=O)O)C(=O)N[C@@H](CCC(=O)O)C(=O)N[C@@H](CC(C)C)C(=O)N[C@@H](CCC(N)=O)C(=O)N[C@@H](CCCNC(=N)N)C(=O)N[C@@H](Cc1ccc(O)cc1)C(=O)N[C@@H](Cc1ccc(O)cc1)C(=O)N[C@H](C(=O)N[C@@H](CCC(=O)O)C(=O)N[C@@H](CC(C)C)C(=O)N[C@@H](CCCNC(=N)N)C(=O)N[C@@H](Cc1c[nH]cn1)C(=O)N[C@@H](Cc1ccc(O)cc1)C(=O)N[C@@H](Cc1ccc(O)cc1)C(=O)N[C@@H](CC(N)=O)C(=O)N[C@@H](Cc1c[nH]c2ccccc12)C(=O)N[C@@H](CC(C)C)C(=O)N[C@H](C(=O)N[C@@H](CCCNC(=N)N)C(=O)N[C@@H](CCC(N)=O)C(=O)N[C@@H](CCCNC(=N)N)C(=O)N[C@@H](Cc1ccc(O)cc1)C(N)=O)[C@@H](C)O)C(C)C) [Compound 33]
